Blank lines part the entries; values can stand above or below the binder they belong to. Ends that are not written are not given here. * marks the point of attachment. FITC = O=C1OC2(c3ccc(O)cc3Oc3cc(O)ccc32)c2ccc(NC(=S)*)cc21; βAla = NCCC(=O)O
Legend:
[1] = biological target: T1, ASF1a-NT domain (ASF1a residues 1–155) (human, UniProt Q9Y294 1-155); test: fluorescence polarisation; competition: 63 nM ASF1a 1–155 with 5 nM FITC tracer peptide and rising unlabeled peptide (15.6 nM to 256 μM for the TLK2 peptide); 50 mM Tris pH 8.0, 100 mM NaCl, 10 mM MgCl2, 1.2 mM DTT, 0.012% Brij-35, 0.2 mg/ml BSA; 295 K; details: both partners purified
T1 construct: anti-silencing factor 1a (ASF1a), human, N-terminal immunoglobulin-like domain, residues 1-155; Cloned into pGEX4T-1 as an N-terminal GST fusion and eluted with glutathione; No cleavage step is described; the structures are described with ASF1a residues only (151-155 residues per chain); also called ASF1a 1–155; ASF1-NT; source: E. coli BL21 (DE3) Rosetta 2, purified (glutathione-Sepharose, SEC)
T1 sequence (Q9Y294 1-155): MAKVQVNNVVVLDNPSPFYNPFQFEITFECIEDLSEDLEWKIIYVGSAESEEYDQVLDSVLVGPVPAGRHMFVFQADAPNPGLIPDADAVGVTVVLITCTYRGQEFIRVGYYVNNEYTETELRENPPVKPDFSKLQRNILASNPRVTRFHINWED

[2] = biological target: T1, ASF1a-NT domain (ASF1a residues 1–155); test: differential scanning fluorimetry; melting temperature of ASF1a 1–155 with or without 160 μM TLK2 peptide; 20 mM HEPES, 250 mM NaCl, 0.1 mM TCEP, pH 7.5; SYPRO orange; ramp 4 to 95 °C; details: both partners purified

binding result [1]: binds
B1: histone H3.1 peptide (ASF1-binding fragment) (peptide)
peptide: TIMPKDIQLARRIRGERA
notes: also called Histone H3 peptide; source: synthetic peptide (Genscript, >98% purity)

binding result [1]: binds
B2: fluorescein-labeled TLK2 tracer peptide (FITC-βAla-LHSLDPRRQELLEARFTG) (peptide)
peptide: {FITC-βAla}-LHSLDPRRQELLEARFTG
notes: TLK2, human, N-terminal stretch; also called fluorescently labeled TLK2 peptide; TLK2 fluorescent peptide; source: synthetic peptide (Tufts University Core Facility, purified by HPLC)

EC50 [1]: 2200 nM
B3: TLK2 peptide spanning residues 3–23 (peptide)
peptide: EELHSLDPRRQELLEARFTGV
notes: TLK2, human, residues 3-23; also called N-terminal TLK2 peptide; unlabeled TLK2 peptide; source: synthetic peptide (Genscript, >98% purity)
increase of melting temperature (160 μM peptide) [2]: ~5 °C
